Non-standard residues stand in square brackets, D forms with d. Groups on a side chain read outwards from the residue. Primed or numbered codes have the meaning given here. No end group written: not given here. *: point of attachment. Biotin = O=C1N[C@H]2[C@H](CS[C@H]2CCCCC(=O)*)N1; PEG2′ = not defined here
Biological target: I-E^k (murine MHC class II molecule, surface-resident on BMDCs and B-cells) (mouse (endogenous in BMDCs and B-cells of B10.A mice))
Assay: flow cytometry on cells; B-cells and BMDCs pulsed with 25 and 50 uM MCC-PEG2-biotin for up to 36 h (with LPS), stained with saturating mSav-AF647 or 14.4.4 scFV-AF647 (10 ug/ml); ratio of the MFIs

ANERADLIAYLKQATK[dS][dS][dC]([maleimide-PEG2′-Biotin]) [C-terminally biotinylated MCC peptide 88-103 derivative (MCC-PEG2-biotin)]
proportion of surface-resident I-E^k loaded with the peptide: < 17%
